In patent US20230391865A1 (University of California, published 2023):

Molecular target: T1, human Tetraspanin-3 (TSPAN3) (human, UniProt O60637 1-253)
T1 construct: whole, on cells; also called human TSPAN3; cell surface expressed TSPAN3
Experiment: flow cytometry (FACS) on TSPAN3-expressing cells
Source text: Using the hybridoma technology, i.e., fusing the antibody-producing B-cells harvested from the immunized mice with myeloma cells, two hybridoma fusion libraries were generated three days later (one from the reactive NZBW mouse and one from the two pooled reactive CD-1 mice), and then retested for reactivity to surface-expressed human TSPAN3.

T1 sequence (O60637 whole entry): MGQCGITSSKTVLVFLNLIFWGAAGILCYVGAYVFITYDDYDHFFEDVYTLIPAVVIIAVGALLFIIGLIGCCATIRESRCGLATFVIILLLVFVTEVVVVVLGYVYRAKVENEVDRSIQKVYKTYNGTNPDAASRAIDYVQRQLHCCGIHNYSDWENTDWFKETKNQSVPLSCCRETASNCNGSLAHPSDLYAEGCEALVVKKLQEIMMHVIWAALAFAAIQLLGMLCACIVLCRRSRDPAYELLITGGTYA

B1: Anti-TSPAN3 M3 clone monoclonal antibody (antibody, V domains shown)
VH: QIQLVQSGPELKKPGETVKISCKASGYTFTTYGMSWVKQAPGKGLKWMGWINTYSGVPTYADDFKGRFAFSLETSASTAYLQINNLKNEDTATYFCARSHYSNFYAMDYWGQEPQSP
VL: DIVMTQSHKFMSTSVGDRVSITCKASQDVGTAVAWYQQKPGQSPKLLIYWASTRHTGVPDRFTGSGSGTDFTLTISNVQSEDLADYFCQQYSSYPLTFGAGTKLELK
notes: Mouse hybridoma clone; isotype IgM, kappa; also called Clone 3 (TSPAN3-C - M3)
With B1 the “% Gated” value was 60.7% and the “Median Fluorescence Intensity (MFI)” value was 284 MFI.

B2: Anti-TSPAN3 M5 clone monoclonal antibody (antibody, IgG2b, V domains shown)
VH: EVQLQQSGPELVKPGASVKMSCKASGYTFTDFYMHWVKQSHGRSLEWIGYIYPHNGFTKYNQSFMGKATLTVNKSSNTAYMELRSLTSEDSAVYYCARRYGDYWGQGISVTVSS
VL: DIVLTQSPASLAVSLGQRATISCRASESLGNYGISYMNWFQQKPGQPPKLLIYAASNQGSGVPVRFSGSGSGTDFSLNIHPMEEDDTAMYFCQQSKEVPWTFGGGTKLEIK
notes: Mouse hybridoma clone; isotype IgG2b, kappa; also called Clone 5 (TSPAN3-C - M5)
B2 was tested, and the “% Gated” value was 73% and the “Median Fluorescence Intensity (MFI)” value was 529 MFI.

B3: Anti-TSPAN3 M6 clone monoclonal antibody (antibody, IgG2b, V domains shown)
VH: EVQLQQSGPELVKPGASVKMSCKASGYTFTDFYMHWVKQSHGRSLEWIGYIYPHNGFTKYNQSFMGKATLTVNKSSNTAYMELRSLTSEDSAVYYCARRYGDYWGQGISVTVSS
VL: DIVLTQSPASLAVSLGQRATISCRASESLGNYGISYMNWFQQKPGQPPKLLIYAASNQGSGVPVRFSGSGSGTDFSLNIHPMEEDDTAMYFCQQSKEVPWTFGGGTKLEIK
notes: Mouse hybridoma clone; isotype IgG2b, kappa; also called Clone 6 (TSPAN3-C - M6)
With B3 the “% Gated” value was 69.5% and the “Median Fluorescence Intensity (MFI)” value was 308 MFI.

B4: Anti-TSPAN3 M1 clone monoclonal antibody (antibody, IgG1, V domains shown)
VH: QVQLQQPGAELVKPGASVKLSCKASGYTFTSYWMHWVKQRPGQGLEWIGMIHPNSGSPNYNERFKSKATLTVDKSSSTAYMQLSSLTSEDSAVYFCARWGDGYHRYFDVWGTGTTVTVSS
VL: DIQMTQSPASLSASVGETVTITCRASGNIHNYLAWYQQKQGKSPQLLVYNAKTLADGVPSRFSGSGSGTQYSLKINSLQPEDFGSYYCQHFWSTPPYTFGGGTKLEIK
notes: Mouse hybridoma clone (CD-1 library); isotype IgG1, kappa; also called Clone 1 (TSPAN3-C - M1)
With B4 the “% Gated” value was 59% and the “Median Fluorescence Intensity (MFI)” value was 290 MFI.
